Biological target: GST-KRT19 fusion protein (UniProt P08727)
Chain of UniProt P08727 (P08727 whole entry, the tested form may be a part): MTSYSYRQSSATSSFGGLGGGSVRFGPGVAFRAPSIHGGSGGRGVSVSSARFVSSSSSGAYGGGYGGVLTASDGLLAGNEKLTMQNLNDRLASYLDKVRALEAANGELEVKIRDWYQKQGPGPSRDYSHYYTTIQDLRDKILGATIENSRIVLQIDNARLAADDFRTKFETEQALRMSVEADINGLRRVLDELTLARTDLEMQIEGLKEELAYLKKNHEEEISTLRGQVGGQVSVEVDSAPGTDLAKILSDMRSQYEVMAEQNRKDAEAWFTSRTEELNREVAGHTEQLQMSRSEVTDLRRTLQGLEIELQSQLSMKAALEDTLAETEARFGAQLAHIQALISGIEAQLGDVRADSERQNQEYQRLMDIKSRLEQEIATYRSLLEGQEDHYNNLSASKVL

HA-Akt protein
in vitro kinase assay ([gamma-32P]ATP, SDS-PAGE, autoradiography): Akt mediated Ser35 phosphorylation of KRT
